In patent US20150196666A1:

Legend:
CD20 (human) [1] = target: CD20 (human) (UniProt P11836); experiment: flow cytometry, unconjugated antibody + FITC goat anti-human IgG, 697 cells; background in parentheses
CD20 (human) [2] = target: CD20 (human) (UniProt P11836); experiment: flow cytometry, unconjugated antibody + FITC goat anti-human IgG, REH cells; background in parentheses
CD20 (human) [3] = target: CD20 (human) (UniProt P11836); experiment: flow cytometry, unconjugated antibody + FITC goat anti-human IgG, Raji cells; background in parentheses
CD20 (human) [4] = target: CD20 (human) (UniProt P11836); experiment: flow cytometry, unconjugated antibody + FITC goat anti-human IgG, Daudi cells; background in parentheses
CD20 (human) [5] = target: CD20 (human) (UniProt P11836); experiment: flow cytometry, unconjugated antibody + FITC goat anti-human IgG, MN-60 cells; background in parentheses
CD20 (human) [6] = target: CD20 (human) (UniProt P11836); experiment: flow cytometry, unconjugated antibody + FITC goat anti-human IgG, Ramos cells; background in parentheses
CD20 (human) [7] = target: CD20 (human) (UniProt P11836); experiment: flow cytometry, unconjugated antibody + FITC goat anti-human IgG, Jeko-1 cells; background in parentheses
CD20 (human) [8] = target: CD20 (human) (UniProt P11836); experiment: flow cytometry, unconjugated antibody + FITC goat anti-human IgG, RS4;11 cells; background in parentheses
CD20 (human) [9] = target: CD20 (human) (UniProt P11836); experiment: flow cytometry, unconjugated antibody + FITC goat anti-human IgG, WSU-FSCCL cells; background in parentheses
[10] = target: human trophoblast cell-surface antigen (TROP-2) (human) (UniProt P09758); experiment: flow cytometry, surface, NCI-N87 cells
[11] = target: human trophoblast cell-surface antigen (TROP-2) (human) (UniProt P09758); experiment: flow cytometry, surface binding on Capan-1 cells
[12] = target: human trophoblast cell-surface antigen (TROP-2) (human) (UniProt P09758); experiment: cell binding assay on TROP-2-expressing cells
[13] = target: CD74 (invariant chain, Ii) (human) (UniProt P04233); experiment: flow cytometry, permeabilized Raji cells
[14] = target: CD74 (invariant chain, Ii) (human) (UniProt P04233); experiment: flow cytometry, permeabilized A-375 cells
[15] = target: CD74 (invariant chain, Ii) (human) (UniProt P04233); experiment: flow cytometry, permeabilized HuH-7 cells
[16] = target: CD74 (invariant chain, Ii) (human) (UniProt P04233); experiment: flow cytometry, permeabilized Hep-G2 cells
[17] = target: CD74 (invariant chain, Ii) (human) (UniProt P04233); experiment: flow cytometry, permeabilized Hs746T cells
[18] = target: CD74 (invariant chain, Ii) (human) (UniProt P04233); experiment: flow cytometry, permeabilized Capan-1 cells
[19] = target: CD74 (invariant chain, Ii) (human) (UniProt P04233); experiment: flow cytometry, permeabilized NCI-N87 cells
[20] = target: CD74 (invariant chain, Ii) (human) (UniProt P04233); experiment: cell binding assay on antigen-positive cells
[21] = target: CD74 (invariant chain, Ii) (human) (UniProt P04233); experiment: flow cytometry, membrane-only CD74, Raji cells
[22] = target: CD74 (invariant chain, Ii) (human) (UniProt P04233); experiment: flow cytometry, membrane-only CD74, A-375 cells
[23] = target: CD74 (invariant chain, Ii) (human) (UniProt P04233); experiment: flow cytometry, membrane-only CD74, HuH-7 cells
[24] = target: CD74 (invariant chain, Ii) (human) (UniProt P04233); experiment: flow cytometry, membrane-only CD74, Hep-G2 cells
[25] = target: CD74 (invariant chain, Ii) (human) (UniProt P04233); experiment: flow cytometry, membrane-only CD74, Hs746T cells
[26] = target: CD74 (invariant chain, Ii) (human) (UniProt P04233); experiment: flow cytometry, membrane-only CD74, Capan-1 cells
[27] = target: CD74 (invariant chain, Ii) (human) (UniProt P04233); experiment: flow cytometry, membrane-only CD74, NCI-N87 cells
[28] = target: CD74 (invariant chain, Ii) (human) (UniProt P04233); experiment: flow cytometry, permeabilized Raji cells; background in parentheses
[29] = target: CD74 (invariant chain, Ii) (human) (UniProt P04233); experiment: flow cytometry, permeabilized A-375 cells; background in parentheses
[30] = target: CD74 (invariant chain, Ii) (human) (UniProt P04233); experiment: flow cytometry, permeabilized HuH-7 cells; background in parentheses
[31] = target: CD74 (invariant chain, Ii) (human) (UniProt P04233); experiment: flow cytometry, permeabilized Hep-G2 cells; background in parentheses
[32] = target: CD74 (invariant chain, Ii) (human) (UniProt P04233); experiment: flow cytometry, permeabilized Hs746T cells; background in parentheses
[33] = target: CD74 (invariant chain, Ii) (human) (UniProt P04233); experiment: flow cytometry, permeabilized Capan-1 cells; background in parentheses
[34] = target: CD74 (invariant chain, Ii) (human) (UniProt P04233); experiment: flow cytometry, permeabilized NCI-N87 cells; background in parentheses
[35] = target: CD74 (invariant chain, Ii) (human) (UniProt P04233); experiment: flow cytometry, membrane-only CD74, Raji cells; background (GAH-FITC only) in parentheses
[36] = target: CD74 (invariant chain, Ii) (human) (UniProt P04233); experiment: flow cytometry, membrane-only CD74, A-375 cells; background (GAH-FITC only) in parentheses
[37] = target: CD74 (invariant chain, Ii) (human) (UniProt P04233); experiment: flow cytometry, membrane-only CD74, HuH-7 cells; background (GAH-FITC only) in parentheses
[38] = target: CD74 (invariant chain, Ii) (human) (UniProt P04233); experiment: flow cytometry, membrane-only CD74, Hep-G2 cells; background (GAH-FITC only) in parentheses
[39] = target: CD74 (invariant chain, Ii) (human) (UniProt P04233); experiment: flow cytometry, membrane-only CD74, Hs746T cells; background (GAH-FITC only) in parentheses
[40] = target: CD74 (invariant chain, Ii) (human) (UniProt P04233); experiment: flow cytometry, membrane-only CD74, Capan-1 cells; background (GAH-FITC only) in parentheses
[41] = target: CD74 (invariant chain, Ii) (human) (UniProt P04233); experiment: flow cytometry, membrane-only CD74, NCI-N87 cells; background (GAH-FITC only) in parentheses
CD22 (human) [42] = target: CD22 (human) (UniProt P20273); experiment: flow cytometry, unconjugated antibody + FITC goat anti-human IgG, 697 cells; background in parentheses
CD22 (human) [43] = target: CD22 (human) (UniProt P20273); experiment: flow cytometry, unconjugated antibody + FITC goat anti-human IgG, REH cells; background in parentheses
CD22 (human) [44] = target: CD22 (human) (UniProt P20273); experiment: flow cytometry, unconjugated antibody + FITC goat anti-human IgG, Raji cells; background in parentheses
CD22 (human) [45] = target: CD22 (human) (UniProt P20273); experiment: flow cytometry, unconjugated antibody + FITC goat anti-human IgG, Daudi cells; background in parentheses
CD22 (human) [46] = target: CD22 (human) (UniProt P20273); experiment: flow cytometry, unconjugated antibody + FITC goat anti-human IgG, MN-60 cells; background in parentheses
CD22 (human) [47] = target: CD22 (human) (UniProt P20273); experiment: flow cytometry, unconjugated antibody + FITC goat anti-human IgG, Ramos cells; background in parentheses
CD22 (human) [48] = target: CD22 (human) (UniProt P20273); experiment: flow cytometry, unconjugated antibody + FITC goat anti-human IgG, Jeko-1 cells; background in parentheses
CD22 (human) [49] = target: CD22 (human) (UniProt P20273); experiment: flow cytometry, unconjugated antibody + FITC goat anti-human IgG, RS4;11 cells; background in parentheses
CD22 (human) [50] = target: CD22 (human) (UniProt P20273); experiment: flow cytometry, unconjugated antibody + FITC goat anti-human IgG, WSU-FSCCL cells; background in parentheses
CEACAM6 (human) [51] = target: CEACAM6 (human) (UniProt P40199); experiment: flow cytometry, Hep-G2 cells
CEACAM6 (human) [52] = target: CEACAM6 (human) (UniProt P40199); experiment: flow cytometry, surface, HuH-7 cells
CEACAM6 (human) [53] = target: CEACAM6 (human) (UniProt P40199); experiment: flow cytometry, surface, NCI-N87 cells

human trophoblast cell-surface antigen (TROP-2) (human), sequence (P09758 27-323): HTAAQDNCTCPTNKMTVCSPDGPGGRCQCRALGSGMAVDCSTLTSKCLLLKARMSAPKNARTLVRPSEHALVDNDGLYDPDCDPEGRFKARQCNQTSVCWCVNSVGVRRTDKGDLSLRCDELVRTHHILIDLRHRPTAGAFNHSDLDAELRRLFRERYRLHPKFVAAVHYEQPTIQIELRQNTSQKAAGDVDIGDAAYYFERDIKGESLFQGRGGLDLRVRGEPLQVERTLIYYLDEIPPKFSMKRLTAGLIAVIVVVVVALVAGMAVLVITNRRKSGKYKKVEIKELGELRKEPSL
CD74 (invariant chain, Ii) (human), sequence (P04233 whole entry, change not shown): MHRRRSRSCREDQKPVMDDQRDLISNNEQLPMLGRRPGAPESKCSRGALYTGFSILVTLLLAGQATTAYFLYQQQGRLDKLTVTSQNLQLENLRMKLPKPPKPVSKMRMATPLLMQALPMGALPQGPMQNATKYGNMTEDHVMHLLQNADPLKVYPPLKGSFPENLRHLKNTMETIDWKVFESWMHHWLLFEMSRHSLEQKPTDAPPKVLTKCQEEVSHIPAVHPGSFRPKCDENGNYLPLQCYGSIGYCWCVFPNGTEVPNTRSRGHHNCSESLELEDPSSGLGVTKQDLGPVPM
CEACAM6 (human), sequence (P40199 35-320): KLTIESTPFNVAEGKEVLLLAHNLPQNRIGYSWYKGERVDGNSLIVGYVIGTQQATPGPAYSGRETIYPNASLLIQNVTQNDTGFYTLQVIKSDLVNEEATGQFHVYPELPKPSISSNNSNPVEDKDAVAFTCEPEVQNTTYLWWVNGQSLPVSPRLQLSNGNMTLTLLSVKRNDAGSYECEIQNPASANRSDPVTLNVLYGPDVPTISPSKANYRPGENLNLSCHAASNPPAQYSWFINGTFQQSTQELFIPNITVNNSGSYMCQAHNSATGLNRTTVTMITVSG
CD20 (human), sequence (P11836 whole entry): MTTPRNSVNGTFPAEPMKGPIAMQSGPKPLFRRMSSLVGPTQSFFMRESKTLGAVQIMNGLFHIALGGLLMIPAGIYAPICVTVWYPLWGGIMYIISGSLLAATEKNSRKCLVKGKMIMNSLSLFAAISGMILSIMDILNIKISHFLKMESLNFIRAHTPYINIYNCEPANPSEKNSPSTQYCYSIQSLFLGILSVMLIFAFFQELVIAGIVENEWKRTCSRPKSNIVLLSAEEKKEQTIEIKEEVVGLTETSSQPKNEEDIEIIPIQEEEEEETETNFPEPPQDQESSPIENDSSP

Molecule: veltuzumab (hA20), humanized anti-CD20 IgG1 (antibody)
- median fluorescence (CD20 (human) [1]): 6.9
- median fluorescence (CD20 (human) [2]): 12.3
- median fluorescence (CD20 (human) [3]): 422
- median fluorescence (CD20 (human) [4]): 815
- median fluorescence (CD20 (human) [5]): 21.5
- median fluorescence (CD20 (human) [6]): 620
- median fluorescence (CD20 (human) [7]): 605
- median fluorescence (CD20 (human) [8]): 3.7
- median fluorescence (CD20 (human) [9]): 97.4

Molecule: humanized RS7 IgG (hRS7), anti-TROP-2 (anti-EGP-1) humanized antibody
- MFI (surface) [10]: 795
- MFI (surface) [11]: 237

Molecule: hRS7-CL2A-SN-38 (hRS7 IgG conjugated to SN-38 through the CL2A linker) (antibody)
- Kd [12]: 1200 pM

Molecule: hRS7-CL2-SN-38 (hRS7 IgG conjugated to SN-38 through the CL2 linker) (antibody)
- Kd [12]: 1200 pM

Molecule: milatuzumab (hLL1), humanized anti-CD74 IgG1 (antibody)
- MFI Ratio hLL1:bkgd (surface and cytoplasmic) [13]: 28.6
- MFI Ratio hLL1:bkgd (surface and cytoplasmic) [14]: 30.8
- MFI Ratio hLL1:bkgd (surface and cytoplasmic) [15]: 28.5
- MFI Ratio hLL1:bkgd (surface and cytoplasmic) [16]: 31.2
- MFI Ratio hLL1:bkgd (surface and cytoplasmic) [17]: 28.8
- MFI Ratio hLL1:bkgd (surface and cytoplasmic) [18]: 49.6
- MFI Ratio hLL1:bkgd (surface and cytoplasmic) [19]: 36.7
- Kd [20]: 770 pM
- MFI Ratio hLL1:bkgd (surface) [21]: 19.6
- MFI Ratio hLL1:bkgd (surface) [22]: 5.3
- MFI Ratio hLL1:bkgd (surface) [23]: 1.6
- MFI Ratio hLL1:bkgd (surface) [24]: 1.5
- MFI Ratio hLL1:bkgd (surface) [25]: 2.1
- MFI Ratio hLL1:bkgd (surface) [26]: 1.8
- MFI Ratio hLL1:bkgd (surface) [27]: 1.3
- MFI (surface and cytoplasmic) [28]: 143
- MFI (surface and cytoplasmic) [29]: 185
- MFI (surface and cytoplasmic) [30]: 114
- MFI (surface and cytoplasmic) [31]: 156
- MFI (surface and cytoplasmic) [32]: 144
- MFI (surface and cytoplasmic) [33]: 248
- MFI (surface and cytoplasmic) [34]: 220
- MFI (surface) [35]: 59
- MFI (surface) [36]: 16
- MFI (surface) [37]: 8
- MFI (surface) [38]: 9
- MFI (surface) [39]: 17
- MFI (surface) [40]: 22
- MFI (surface) [41]: 5

Molecule: epratuzumab (hLL2), humanized anti-CD22 IgG1 (antibody)
- median fluorescence (CD22 (human) [42]): 16
- median fluorescence (CD22 (human) [43]): 22.9
- median fluorescence (CD22 (human) [44]): 45.9
- median fluorescence (CD22 (human) [45]): 145
- median fluorescence (CD22 (human) [46]): 10.3
- median fluorescence (CD22 (human) [47]): 40.8
- median fluorescence (CD22 (human) [48]): 11.2
- median fluorescence (CD22 (human) [49]): 23.3
- median fluorescence (CD22 (human) [50]): 7.7

Molecule: milatuzumab-CL2E-SN-38 (antibody)
- Kd [20]: 800 pM

Molecule: milatuzumab-CL2A-SN-38 (antibody)
- Kd [20]: 590 pM

B1: hMN-15, humanized anti-CEACAM6 IgG1 (antibody, from a related filing, V domains shown)
VH: QVQLVESGGGVVQPGRSLRLSCSSSGFALTDYYMSWVRQAPGKGLEWLGFIANKANGHTTDYSPSVKGRFTISRDNSKNTLFLQMDSLRPEDTGVYFCARDMGIRWNFDVWGQGTPVTVSS
VL: DIQLTQSPSSLSASVGDRVTMTCSASSRVSYIHWYQQKPGKAPKRWIYGTSTLASGVPARFSGSGSGTDFTFTISSLQPEDIATYYCQQWSYNPPTFGQGTKVEIKR
- MFI (CEACAM6 (human) [51]): 175
- MFI (surface) (CEACAM6 (human) [52]): 81
- MFI (surface) (CEACAM6 (human) [53]): 1120
